The values below come from US20190234935A1 (Janssen / Centocor, published 2019).

The target in test [1] is T1, N-terminally flag tagged full-length GFRAL on transiently transfected HEK293F cells (Homo sapiens (Human), UniProt Q6UXV0 19-394).
T1 construct: also called GFRAL-overexpressing HEK293F cells; GFRAL-expressing cells
T1 sequence: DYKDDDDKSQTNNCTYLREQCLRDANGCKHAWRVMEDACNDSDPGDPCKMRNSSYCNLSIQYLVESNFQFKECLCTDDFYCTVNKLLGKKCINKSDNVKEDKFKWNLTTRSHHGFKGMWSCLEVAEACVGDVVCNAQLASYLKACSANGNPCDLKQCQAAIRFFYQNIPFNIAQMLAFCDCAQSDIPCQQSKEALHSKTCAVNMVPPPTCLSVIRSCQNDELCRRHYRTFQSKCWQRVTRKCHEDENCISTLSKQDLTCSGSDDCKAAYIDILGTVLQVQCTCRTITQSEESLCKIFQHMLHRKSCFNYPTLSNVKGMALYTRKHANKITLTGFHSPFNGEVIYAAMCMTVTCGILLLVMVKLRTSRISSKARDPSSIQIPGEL
Nature of the test: FACS on GFRAL-expressing HEK293F cells, dose response.

Test [2] deals with T2, N-terminally flag tagged full-length GFRα4 on transiently transfected HEK293F cells (Homo sapiens (Human), UniProt Q9GZZ7 21-278).
T2 sequence: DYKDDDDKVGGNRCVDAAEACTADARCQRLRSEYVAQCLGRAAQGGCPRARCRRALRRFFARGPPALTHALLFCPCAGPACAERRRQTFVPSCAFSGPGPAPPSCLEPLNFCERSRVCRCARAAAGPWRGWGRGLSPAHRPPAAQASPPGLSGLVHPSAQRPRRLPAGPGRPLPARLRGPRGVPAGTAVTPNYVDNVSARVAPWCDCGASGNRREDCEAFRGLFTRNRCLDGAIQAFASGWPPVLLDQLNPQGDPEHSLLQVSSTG
Nature of the test: FACS on transfected HEK293F cells. How it is done: (§1) For the confirmation of specific binding of GDF15 to GFRAL, HEK293F cells expressing the N-terminally flag tagged GFRAL, GFRα1, GFRα2, GFRα3 or GFRα4 were incubated with Fc-GDF15 and the binding was analyzed by FACS. Briefly, transiently transfected cells were spun down two days post transfection, washed with 1×BD staining buffer (BD Pharmingen) and treated with 5 μg/ml of Fc-GDF15 by incubating at 4° C. for 1 hour in 1×BD staining buffer (BD Pharmingen). Cells were subsequently washed and stained with the secondary antibody, goat anti-human IgG conjugated with Alexa Fluor 647 (AF647, Life Technologies), at 4° C. for 30 min, for the detection of Fc-GDF15 binding. Cells from the same batch of transfection were also stained with an Fc isotype negative control, and with FITC-labeled anti-flag antibody (Sigma) for the detection of cell surface expression, and DAPI for live/dead staining. The stained cells were analyzed on BD Fortessa LSR.

Test [3] deals with T3, N-terminally flag tagged full-length GFRα2 on transiently transfected HEK293F cells (Homo sapiens (Human), UniProt O00451 22-444).
T3 sequence: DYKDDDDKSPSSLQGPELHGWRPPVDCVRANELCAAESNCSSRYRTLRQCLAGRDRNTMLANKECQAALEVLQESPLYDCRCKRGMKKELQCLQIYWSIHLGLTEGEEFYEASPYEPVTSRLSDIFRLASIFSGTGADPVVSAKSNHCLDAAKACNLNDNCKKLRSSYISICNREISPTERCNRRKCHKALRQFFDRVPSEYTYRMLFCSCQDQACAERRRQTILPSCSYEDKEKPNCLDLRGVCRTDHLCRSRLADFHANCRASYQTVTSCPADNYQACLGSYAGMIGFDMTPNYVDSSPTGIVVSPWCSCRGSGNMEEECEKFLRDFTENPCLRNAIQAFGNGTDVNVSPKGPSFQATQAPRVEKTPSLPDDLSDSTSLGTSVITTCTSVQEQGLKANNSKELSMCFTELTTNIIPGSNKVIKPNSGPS
Nature of the test: FACS on transfected HEK293F cells. How it is done:
as §1

Test [4] addresses T4, N-terminally flag tagged full-length GFRα3 on transiently transfected HEK293F cells (Homo sapiens (Human), UniProt O60609 32-374).
T4 sequence: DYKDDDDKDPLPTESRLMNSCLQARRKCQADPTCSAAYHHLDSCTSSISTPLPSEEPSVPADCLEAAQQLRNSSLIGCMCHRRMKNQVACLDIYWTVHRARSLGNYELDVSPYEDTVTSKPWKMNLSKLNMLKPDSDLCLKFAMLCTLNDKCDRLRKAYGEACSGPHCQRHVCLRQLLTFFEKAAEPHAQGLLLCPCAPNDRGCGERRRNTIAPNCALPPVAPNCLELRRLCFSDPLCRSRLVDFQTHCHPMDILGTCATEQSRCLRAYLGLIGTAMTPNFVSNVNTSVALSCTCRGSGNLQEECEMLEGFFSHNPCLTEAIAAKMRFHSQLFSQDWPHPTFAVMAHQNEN
Nature of the test: FACS on transfected HEK293F cells. How it is done: as §1

Test [5] has as its target T5, N-terminally flag tagged full-length GFRα1 on transiently transfected HEK293F cells (Homo sapiens (Human), UniProt P56159 25-429).
T5 sequence: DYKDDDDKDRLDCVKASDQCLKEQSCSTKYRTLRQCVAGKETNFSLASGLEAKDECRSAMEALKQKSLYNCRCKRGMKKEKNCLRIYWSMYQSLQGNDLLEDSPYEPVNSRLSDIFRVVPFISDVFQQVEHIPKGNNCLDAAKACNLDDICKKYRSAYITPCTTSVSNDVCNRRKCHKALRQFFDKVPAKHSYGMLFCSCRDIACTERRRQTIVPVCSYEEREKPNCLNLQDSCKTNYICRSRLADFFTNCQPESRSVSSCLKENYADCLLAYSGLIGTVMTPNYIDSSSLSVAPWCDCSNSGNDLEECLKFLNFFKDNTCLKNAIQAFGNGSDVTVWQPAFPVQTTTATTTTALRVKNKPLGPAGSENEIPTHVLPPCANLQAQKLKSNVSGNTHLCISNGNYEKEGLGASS
Nature of the test: FACS on transfected HEK293F cells. On the procedure:
as §1

B1: heterodimeric Fc-GDF15 fusion molecule (Fc fusion)
chain 1: CPPCPAPEAAGGPSVFLFPPKPKDTLMISRTPEVTCVVVDVSQEDPEVQFNWYVDGVEVHNAKTKPREEQFNSTYRVVSVLTVLHQDWLNGKEYKCKVSNKGLPSSIEKTISKAKGQPREPQVYTLPPSQEEMTKNQVSLSCAVKGFYPSDIAVEWESNGQPENNYKTTPPVLDSDGSFFLVSRLTVDKSRWQEGNVFSCSVMHEALHNHYTQKSLSLSLGKGSGGGARNGDHCPLGPGRCCRLHTVRASLEDLGWADWVLSPREVQVTMCIGACPSQFRAANMHAQIKTSLHRLKPDTVPAPCCVPASYNPMVLIQKTDTGVSLQTYDDLLAKDCHCI
chain 2: CPPCPAPEAAGGPSVFLFPPKPKDTLMISRTPEVTCVVVDVSQEDPEVQFNWYVDGVEVHNAKTKPREEQFNSTYRVVSVLTVLHQDWLNGKEYKCKVSNKGLPSSIEKTISKAKGQPREPQVYTLPPSQEEMTKNQVSLWCLVKGFYPSDIAVEWESNGQPENNYKTTPPVLDSDGSFFLYSRLTVDKSRWQEGNVFSCSVMHEALHNHYTQKSLSLSLGK
notes: also called Fc-GDF15 ligand
By EC50 is commonly meant the concentration that produces a half-maximal response. Low values mean an effect from little substance, high ones a need for much substance. In test [1], B1 yielded an EC50 of 0.258 nM. For the same molecule, the binding result in test [2], in test [3], in test [4] and in test [5] was “no binding (tested: 5 µg/ml)” each time.
